{
  "source": "the RNAGym collection of RNA variant scans (doi:10.1073/pnas.2313332121)",
  "parents": {"B1": {"name": "TPR 5TU (parent)", "chain": "GGAUCUUCUCGAUCUAACAAAAAAGACAAAUCUGCCACAAAGCUUGAGAGCAUCUUCGGAUGCAGAGGCGGCAGCCUUCGGUGGCGCGAUAGCGCCAACGUUCUCAACUAUGACACGCAAAACGCGUGCUCCGUUGAAUGGAGUUUAUCAUG"}},
  "note": "Variants at the floor of the assay were thinned out.",
  "data": [
    {"variants_of": "B1", "assay": "polymerase ribozyme fitness, log enrichment relative to wild type (log ratio); higher = more active; in vitro selection for triplet polymerase activity", "in_short": "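To select mutant libraries of each subunit of a heterodimeric triplet polymerase ribozyme, built by PCR and transcribed, each was annealed with a biotinylated primer, partner subunit and triplets, then incubated frozen at −7 °C. Extended constructs were gel-excised, captured on streptavidin beads and amplified by RT-PCR, in one round carried out in triplicate. Illumina sequencing of input and output libraries kept genotypes with ≥10 input reads and ≥1 read per output. Fitness is the base-2 logarithm of genotype enrichment relative to wild-type enrichment, from inverse-variance-weighted replicate averages.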", "values": [
      {"variant": "A12U C43U C63U U90C C105G G140A", "polymerase ribozyme fitness (log ratio)": "≤ -4.2"},
      {"variant": "A12G G48A G71A G86A G126U C131A G140U C149A A150G", "polymerase ribozyme fitness (log ratio)": "≤ -4.2"},
      {"variant": "C14A A17G U31A G59A C75G C95U U101G A113U A121U", "polymerase ribozyme fitness (log ratio)": "≤ -4.2"},
      {"variant": "C14G G42U G46C G92C A119U G128A", "polymerase ribozyme fitness (log ratio)": "≤ -4.2"},
      {"variant": "U13C", "polymerase ribozyme fitness (log ratio)": -0.269},
      {"variant": "U13A", "polymerase ribozyme fitness (log ratio)": -0.225},
      {"variant": "U13G", "polymerase ribozyme fitness (log ratio)": -0.261},
      {"variant": "U13A G74C C93U G124A", "polymerase ribozyme fitness (log ratio)": "≤ -4.2"},
      {"variant": "U13G A39C G62A A107U U139A A142U", "polymerase ribozyme fitness (log ratio)": "≤ -4.2"},
      {"variant": "U13C A39C C72A C76G C99G G140U A147C", "polymerase ribozyme fitness (log ratio)": "≤ -4.2"},
      {"variant": "A12G C85U C129A U151C", "polymerase ribozyme fitness (log ratio)": "≤ -4.2"},
      {"variant": "A12U A91U A120G U146A", "polymerase ribozyme fitness (log ratio)": -4.18},
      {"variant": "A12U U33A C35G C57A U77C U101C U134A", "polymerase ribozyme fitness (log ratio)": "≤ -4.2"},
      {"variant": "C14G C85U C103U", "polymerase ribozyme fitness (log ratio)": -3.1},
      {"variant": "C14G A24G U31A A49C A52C C54A U56A A73U A89G C99G A107C C149G", "polymerase ribozyme fitness (log ratio)": "≤ -4.2"},
      {"variant": "C14G A22C A73U", "polymerase ribozyme fitness (log ratio)": -3.92},
      {"variant": "U13G G83C U145C", "polymerase ribozyme fitness (log ratio)": -3.39},
      {"variant": "U13C U148C", "polymerase ribozyme fitness (log ratio)": -2.48},
      {"variant": "U13G C57U C96G", "polymerase ribozyme fitness (log ratio)": -1.66},
      {"variant": "U13A A23U G59A C87U", "polymerase ribozyme fitness (log ratio)": "≤ -4.2"},
      {"variant": "U13G A37U U55A C57A C76U G86A U127C", "polymerase ribozyme fitness (log ratio)": "≤ -4.2"},
      {"variant": "C14A A39G G42A U82C G88C", "polymerase ribozyme fitness (log ratio)": "≤ -4.2"},
      {"variant": "C14A G46C C75G C87A A89U U90G C96U U102G G140A", "polymerase ribozyme fitness (log ratio)": "≤ -4.2"},
      {"variant": "U13A A24U C87A C123A", "polymerase ribozyme fitness (log ratio)": "≤ -4.2"},
      {"variant": "A12G U33C A73G U130G", "polymerase ribozyme fitness (log ratio)": -3.56},
      {"variant": "A12U C36U G84U", "polymerase ribozyme fitness (log ratio)": -4.11},
      {"variant": "C14G A39G A49U U56A G81U", "polymerase ribozyme fitness (log ratio)": "≤ -4.2"},
      {"variant": "U13G A21U A22C U82G G92U A98C C116U G136A", "polymerase ribozyme fitness (log ratio)": -4.02},
      {"variant": "C14G A37U G86U A89U A119U C132G", "polymerase ribozyme fitness (log ratio)": "≤ -4.2"},
      {"variant": "A12U A24U C43A G46A U53A U55A C57U A60G G80U C93G", "polymerase ribozyme fitness (log ratio)": "≤ -4.2"},
      {"variant": "C14G A60U G86U", "polymerase ribozyme fitness (log ratio)": "≤ -4.2"},
      {"variant": "A12U C35G C36G U55G G86U", "polymerase ribozyme fitness (log ratio)": "≤ -4.2"},
      {"variant": "A12G U78G A89G C95U U109C U145C A150G", "polymerase ribozyme fitness (log ratio)": "≤ -4.2"},
      {"variant": "U13C C54U C103U", "polymerase ribozyme fitness (log ratio)": -1.54},
      {"variant": "C14A G94A", "polymerase ribozyme fitness (log ratio)": -1.67},
      {"variant": "U13C C14G C57A U101G", "polymerase ribozyme fitness (log ratio)": -1.23},
      {"variant": "U13G C27G C51A G84C A142G A147C", "polymerase ribozyme fitness (log ratio)": "≤ -4.2"},
      {"variant": "U13C A22G A49U G68C C79G", "polymerase ribozyme fitness (log ratio)": "≤ -4.2"},
      {"variant": "A12U U15A A21U U55A C76U C79A A121U", "polymerase ribozyme fitness (log ratio)": "≤ -4.2"},
      {"variant": "A12U U109G", "polymerase ribozyme fitness (log ratio)": -2.25},
      {"variant": "A12G U55A C76A C93A A120G", "polymerase ribozyme fitness (log ratio)": -3.73},
      {"variant": "U13G A24U A28U A29U C54U C69A C76G G94U A97C U135C", "polymerase ribozyme fitness (log ratio)": "≤ -4.2"},
      {"variant": "A12U C54A", "polymerase ribozyme fitness (log ratio)": -1.78},
      {"variant": "U13C G94C U104G", "polymerase ribozyme fitness (log ratio)": -2.15},
      {"variant": "C14G G48A A119G", "polymerase ribozyme fitness (log ratio)": -3.43},
      {"variant": "A12G U56G C96U A120U", "polymerase ribozyme fitness (log ratio)": -0.669},
      {"variant": "U13A A17G A49C A107G", "polymerase ribozyme fitness (log ratio)": "≤ -4.2"},
      {"variant": "C14G G50C C51U C79U C85A C125A", "polymerase ribozyme fitness (log ratio)": "≤ -4.2"},
      {"variant": "C14A A19U A21C A60G", "polymerase ribozyme fitness (log ratio)": -1.8},
      {"variant": "C14G A52G G141C", "polymerase ribozyme fitness (log ratio)": -3.34},
      {"variant": "C14G A24G A41U G67A G152A", "polymerase ribozyme fitness (log ratio)": "≤ -4.2"},
      {"variant": "U13G A28U G71A G88C", "polymerase ribozyme fitness (log ratio)": "≤ -4.2"},
      {"variant": "U13C G50U G86C A89U C96A C116A", "polymerase ribozyme fitness (log ratio)": "≤ -4.2"},
      {"variant": "A12U C87U", "polymerase ribozyme fitness (log ratio)": -1.1},
      {"variant": "U13A A98U U148G", "polymerase ribozyme fitness (log ratio)": "≤ -4.2"},
      {"variant": "A12U U56C G59A G88C", "polymerase ribozyme fitness (log ratio)": "≤ -4.2"},
      {"variant": "C14G A40C G42C G48A G86U G92U C99A", "polymerase ribozyme fitness (log ratio)": "≤ -4.2"},
      {"variant": "C14G C72U", "polymerase ribozyme fitness (log ratio)": -3.04},
      {"variant": "U13G U56A C57U C87A G88C A89U A121U C125A U148A", "polymerase ribozyme fitness (log ratio)": "≤ -4.2"},
      {"variant": "C14A C38U G84U", "polymerase ribozyme fitness (log ratio)": -3},
      {"variant": "U13C G88A C99G", "polymerase ribozyme fitness (log ratio)": -4.01},
      {"variant": "C14A A20U A60G A66U C93G", "polymerase ribozyme fitness (log ratio)": "≤ -4.2"},
      {"variant": "U13G G84U", "polymerase ribozyme fitness (log ratio)": -3.13},
      {"variant": "A12U A17G A23G C35U G83A C87G G136U", "polymerase ribozyme fitness (log ratio)": "≤ -4.2"},
      {"variant": "U13C A66U G88A A91U", "polymerase ribozyme fitness (log ratio)": "≤ -4.2"},
      {"variant": "A12U C18G C32A G84A C105U U127G", "polymerase ribozyme fitness (log ratio)": "≤ -4.2"},
      {"variant": "C14G C54G G68C C85U C105A C114A A137U", "polymerase ribozyme fitness (log ratio)": "≤ -4.2"},
      {"variant": "U13G C36U A52G U55G C69U C76G G83C C114U C149A", "polymerase ribozyme fitness (log ratio)": "≤ -4.2"},
      {"variant": "A12U A23U U45C A97G A98U C131G C132U", "polymerase ribozyme fitness (log ratio)": -4.12},
      {"variant": "U13G G25A G83A", "polymerase ribozyme fitness (log ratio)": -4.07},
      {"variant": "C14A A40U C76U U78G G84A C103G G128A G141C", "polymerase ribozyme fitness (log ratio)": "≤ -4.2"},
      {"variant": "A12U A147U", "polymerase ribozyme fitness (log ratio)": 0.945},
      {"variant": "U13C C54U C87U", "polymerase ribozyme fitness (log ratio)": -1.35},
      {"variant": "U13G G48A C93A C125G", "polymerase ribozyme fitness (log ratio)": "≤ -4.2"},
      {"variant": "C14G A47C", "polymerase ribozyme fitness (log ratio)": -2.35},
      {"variant": "C14A G34A A40C U55G C87G C114G G117U A121C U139A", "polymerase ribozyme fitness (log ratio)": "≤ -4.2"},
      {"variant": "A12U C18U A47G C85A C93A A98C A121U", "polymerase ribozyme fitness (log ratio)": "≤ -4.2"},
      {"variant": "U13C A16U G84A U109G", "polymerase ribozyme fitness (log ratio)": -1.88},
      {"variant": "A12U U15G U56A G71C G84A G117U A120U A147U", "polymerase ribozyme fitness (log ratio)": -3.53},
      {"variant": "C14A U15A G50U A66G U101G C114U C118G G133A A137G", "polymerase ribozyme fitness (log ratio)": "≤ -4.2"},
      {"variant": "C14G A17G G46C G81A C96G A120G", "polymerase ribozyme fitness (log ratio)": "≤ -4.2"},
      {"variant": "C14G G81A C87U A106C G140U", "polymerase ribozyme fitness (log ratio)": "≤ -4.2"},
      {"variant": "C14G C27G U55G G68A U82A G94C A107U A142G", "polymerase ribozyme fitness (log ratio)": "≤ -4.2"},
      {"variant": "C14A G50A C85G C96A", "polymerase ribozyme fitness (log ratio)": "≤ -4.2"}
    ]}
  ]
}
